Measured values as given in the domain aggregation screens of Martell et al. (2025).

Assay: soluble fraction after stress (log2 fold change); higher = more stays soluble; pooled small domains, quantitative proteomics
Details: stress: 50 degC
Method in brief: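 Custom libraries of small protein domains were pooled and measured in a high-throughput format, with quantitative proteomics as the read-out. Each library was stressed at 50°C. The value is the log2 fold change in the amount of each protein that stays soluble after stress, used as a measure of aggregation propensity; higher values mean more of the protein stays soluble.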

| Sequence | soluble fraction (log2) |
| --- | --- |
| HMVSEASELTDTINKIGSLAQALVGANKLSKTDLVGIIKKYHTSANYNSITDIGVAKNILAELEAKN | 0.0739 |
| HMLGSVRTIRQVLDDGRLIVADGGGNPSVIRRSGALAHETFANGQRVIVDPSGRLALELLPD | 0.314 |
| HMSPSLVEAMRLRMYEMGLNQAKLSELLGVSPSRVSDYLTGRSEPTLKVARDISRKLNIDASIVLG | -1.07 |
| HMVPEETKQFINQLNHGSLSIRMNAANNLEKLGLLAIPEIEAALPKAHGEAAFRLPRLLHALVLRETEYF | -0.00885 |
| HMNLTLMDALKAAGLPVDGINLSMVNKMMEEQMPIDKTSLNQMYQLVQDNKDINVTTLVELKRLG | -0.0277 |
| HMSQSYHLADRGQSLGTLDYQAVLVGLATGRLSPDTLSWQEGEAGWVALRQRPEFASGVSAVASL | 0.0116 |
| HMAGGNHPTRLELLDSAAHIAERDGTSALTVDAITKSAGHAKGTFYIHFDDRADLLVEMHRR | -0.183 |
| HMESADEESNALMYDGLLAMRGKRYEVALEFFDALVKHDPDFAEGWNKRATVLYLLGRYERSIADIKQVLA | -0.0654 |
| HMLDIQKKGENIAYIEGAGDVIPESLKQIGYHVVTIAPKDINAETLSRFDAVVVGIRAYNTVEDL | -0.244 |
| HMGRGSEDEQMRGLAVILAEQKQIMQTLGVENEVVKPEQYINTLKRMAELNGFKDTDQFFSIPQ | 0.339 |
| HMEKTEQMQVILDYIARYGEINNEKVQEILGVKRTRAYTILKQMVENGFVTTNGRGEEKKYYSIR | -0.336 |
| HMGKMTSTLGVHIAAYRKEHGETVAQFASRSGVSVSSIRRIESGISDPSADLVWKISRHMGMTMDDLFKKM | -3.87 |
| HMLTKGDRQSIRDSIIYMVGNAPRTLDYIVAESRYSEEDVIEAVRSLLSSHILSIDDSDMISLTRK | -0.448 |
| HMEWTVEKQAAATLNAWMRKNSEMTSEKKVAVAAGIGPATVNRIMKAEVSTTIGVLSSLARAFGHEAYEMI | -0.276 |
| HMNKSEFLNELEKRIRVLEKNEIKDILAEYSQHIDMRMGSGLSEAEAIKDFGDMDDLAAEILEAY | 0.08 |
| HMKPPTIELSYSEFIELVERGKVSKVIFSSDNYTLKGETVNGENFETVRPPFLEDNLSEILTIHKVPVSSE | -0.208 |
| HMENQGEDMRQQVKALVNADKTNITKLATATGYSRSTISMYLAGNYKGDVEAVERRLEEYMKTQG | -0.0136 |
| HMNRREFQFSEGSSNKFWSIELRDQSFIVHYGKIGTNGQAQEKTFATADAAKKEHDKLIAEKTKKGYVEVQ | -0.392 |
| HMSKKQEQALQSREKLLDAATALFAEHGYRDTSVQAIGEKAGVSRGSIFWHFGSKEGLLWAVVERAFTA | 0.265 |
| HMYEENFSKIKNDISTIFKRHKISFTNNFISHLSSVFNTDSLTNKMELEKLDSFLINNKKVTENELLKFII | -0.025 |
| HMVKVSVYPNPAVDRITISGEVKAYAVYDATGKVVMKDTDYRGGAIGVSHLPAGIYIVRTDAGAVTVNK | -0.652 |
| HMERLKKYLDDVRTFLPGTNPKKVDEILREIESHVLERAEREHGEVNDNAVAMSIKEYGSPEEVAARYYEG | 0.194 |
| HMDGFAEFWSAYPKKVGKGAAEASWRKHRPPLQTVLDAVKRQAESDQWRKDGGQFIPNPATWLNQKRWEDD | 0.0948 |
| HMRIWTPEMIKEYIISSNGKEPLNSHYYSTNHPSIYAAAERIFGSWGNAINAAGLDYNAIRKYK | -0.00482 |
| HMKEINFTIEESAKGRLDKVIAENVADLTRSQVQSLIKKGQILVNDAPTTNRYQVKPNDQVIIKLPDPV | 0.339 |
| HMQQDGSSSLGENMLNQELQARGVVPSEIPQEVWERVIQEAGKKSKREIYADIGLGRSLAAGFAQRLAA | 0.261 |
| HMSDAVQLGLRLRAARERRGLSQQAVADALGLPRTAVTNMESGNRAVSTLELTKLAALYGQSTAFFLSP | -0.1 |
| HMDYYKILGLSTSATLDQIKKAFRQLAIEFHPDKNPNNPTAEDKFQRISEAYAVLSNPEKRAEYDRSY | -0.0923 |
